The target of the assay is T1, human interleukin-4 (IL-4) (human, UniProt P05112 25-153, biotinylated in the competition ELISAs).
T1 construct: Commercial human IL-4 (R&D Systems); also called human IL-4; biotinylated IL-4
T1 sequence: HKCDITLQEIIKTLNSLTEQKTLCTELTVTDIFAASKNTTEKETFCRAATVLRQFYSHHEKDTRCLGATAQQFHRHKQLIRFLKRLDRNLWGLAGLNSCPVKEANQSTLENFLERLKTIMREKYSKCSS
Kind of assay: SPR Biacore. A general note: In SPR one partner is held on a chip, and binding of the other changes the refractive index at the surface.

B1: humanized antibody 19C11-VH3.LA.SV/κ1 graft (anti-IL-4) (antibody, V domains shown)
VH: EVQLVESGGGLVQPGGSLRLSCAASGYTFTDYSMHWVRQAPGKGLEWVVWINTETGEPTYADSVKGRFTISLDNSKNTAYLQMNSLRAEDTAVYYCARGGIFYGMDYWGQGTLVTVSS
VL: DIQMTQSPSSLSASVGDRVTITCKASQSVINDAAWYQQKPGKAPKLLIYYTSHRYTGVPSRFSGSGSGTDFTLTISSLQPEDFATYYCQQDYTSPWTFGQGTKVEIKR
notes: Parental (monospecific) humanized anti-IL-4 antibody; also called parental anti-IL-4 antibody; hu19C11
Take B1: the binding result was “binds”.
